Results taken from the supplement of paper PMC10567573.
± gives the standard deviation.

Test: protein stability index of a GFP-peptide fusion (GPS, HEK-293T) (PSI 1-6); higher = more stable
Settings: c terminus: a fixed tail appended
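Further: 24-mer peptide tiles fused after GFP, lentivirally expressed, FACS-sorted into six equal bins by GFP/DsRed ratio, decoded by Illumina sequencing, PSI is the read-weighted mean bin number.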

| Sequence | protein stability index (treatment: DMSO) | protein stability index (treatment: MLN4924 1 uM, 8 h) |
| --- | --- | --- |
| RGENLEHLRNKTEDLEATSEHFKT [VAMP8] | 5.43 ± 0.35 | 5.29 ± 0.12 |
| RGIAIVSVLVILISIVIFCLETLP [KCNA4] | 2.29 ± 0.17 | 2.26 ± 0.33 |
| RGRPRKLSKEYWDCLEGKKSKHAP [ELF3] | 4.18 ± 0.27 | 4.19 ± 0.47 |
| RHVAPIPSHYDVQDRFRIELSEEG [MOSPD3] | 4.34 ± 0.4 | 4.69 ± 0.21 |
| RKFSRLSCLRRRRHPPKVGDDSDL [SMG5] | 4.08 ± 0.17 | 3.96 ± 0.28 |
| RKLQKEQQRSKDLESRQRSLEQAN [TFE3] | 5.09 ± 0.3 | 5.11 ± 0.27 |
| RKVLQAVHRGDGANPFQAYLDVDL [RTN2] | 3.21 ± 0.26 | 3.26 ± 0.19 |
| RLAADDFRTKFETEQALRLSVEAD [KRT17] | 4.8 ± 0.3 | 4.66 ± 0.15 |
| RLAQGNPQQGFFSSFFTCNQKCQL [ATP23] | 2.49 ± 0.45 | 2.53 ± 0.23 |
| RLAQPSSPEVLTPQLSPGSGTPQA [RTN2] | 5.12 ± 0.12 | 4.96 ± 0.2 |
| RLPWAGQLTKELPLSPAFFGEDGI [PBXIP1] | 3.43 ± 0.44 | 3.49 ± 0.28 |
| RLVLPIAYEFNPELVLVSAGFDAA [HDAC6] | 2.3 ± 0.57 | 2.4 ± 0.2 |
| RLWGIRKNRPAMNYDKLSRSIRQY [SPDEF] | 2.4 ± 0.25 | 2.4 ± 0.45 |
| RMPDEDSKIDHYVLEYRRTNFEGP [FSD1] | 3.78 ± 0.19 | 3.79 ± 0.14 |
| RNGLHLPEQVQNEIKSMKKRMSEL [NLN] | 4.11 ± 0.33 | 4.4 ± 0.31 |
| RNRGRFSSTTGLFYSAEIICAIEY [PRKX] | 2.92 ± 0.47 | 2.91 ± 0.71 |
| RPDGDCASSLNGGNIKGIEGHSPG [ZC2HC1A] | 5.16 ± 0.18 | 5.02 ± 0.31 |
| RPLCAQGDWHSPTLIREKSFGACL [ELOA2] | 2.53 ± 0.19 | 2.6 ± 0.21 |
| RPMHHEDFKEDLKKFRTKSRTWAG [CDC25A] | 3.31 ± 0.22 | 3.61 ± 0.36 |
| RPSTYYELLGVHPGASTEEVKRAF [DNAJC4] | 3.48 ± 0.21 | 3.86 ± 0.23 |
| RQKTSGPSVIQEIHQESGKAPSTD [C10orf62] | 5.41 ± 0.073 | 5.4 ± 0.057 |
| RRARINESLQELRLLLAGAEVQAK [HES6] | 2.62 ± 0.3 | 2.84 ± 0.77 |
| RRDAEEWFHAKSAELNKEVSTNTA [KRT13] | 4.71 ± 0.25 | 4.79 ± 0.1 |

| Sequence | protein stability index (treatment: DMSO) | protein stability index (treatment: MLN4924 1 uM, 8 h) |
| --- | --- | --- |
| RRFSSEDLEDPLGGLLSYDEGGIT [FBF1] | 4.57 ± 0.21 | 4.56 ± 0.16 |
| RRKIRELQLRYSLRILIGDPPHHD [BEX5] | 2.42 ± 0.42 | 2.07 ± 0.23 |
| RSCAIVEDDGLQSAFTAAHELGHV [ADAMTS4] | 3.62 ± 0.43 | 3.55 ± 0.2 |
| RSLILDDRGLRGFPKNRVLEGVID [TRIM9] | 3.16 ± 0.2 | 3.47 ± 0.41 |
| RSRYDGHRIWMYNCHIGGSFSEET [LOXL2] | 2.17 ± 0.35 | 2.72 ± 0.35 |
| RSSFANQGEICLCTSRIFVQKSIY [ALDH8A1] | 2.03 ± 0.41 | 2.13 ± 0.24 |
| RTALEYCKLILSLEPDEDPLCMLL [TCF25] | 2.24 ± 0.36 | 2.32 ± 0.3 |
| RTCFSPASDGSDFTFLRPLSVQQP [PCDHGC5] | 2.77 ± 0.23 | 2.78 ± 0.22 |
| RTDLKDLIIFDKQSSQRMRQNLKL [CEP70] | 2.93 ± 0.24 | 2.93 ± 0.32 |
| RTDPNGDYIRRYLPVLRGFPAKYI [CRY1] | 2.27 ± 0.3 | 2.42 ± 0.39 |
| RTMCAVLGLVARQEDSGLRDHSVR [AUP1] | 2.43 ± 0.33 | 2.76 ± 0.26 |
| RTPLHYAAANCHFHCIETLVTTGA [ANKRD44] | 2.36 ± 0.57 | 2.44 ± 0.5 |
| RVRKEAMMGLAQIYKKYALQSAAG [PDS5B] | 2.2 ± 0.37 | 2.14 ± 0.34 |
| RVSRKPTAAMRCMCPLYDPNRQLW [GAN] | 2.48 ± 0.67 | 2.34 ± 0.47 |
| RVYVSGLMKGGADLFVENMPGFPD [APMAP] | 2.56 ± 0.34 | 2.7 ± 0.35 |
| RYDAEVVAIAQKFAALRASLVAPL [MYORG] | 2.55 ± 0.17 | 2.01 ± 0.17 |
| SASECMQDFNTMFTNCYIYNKPTD [BRD3] | 3.1 ± 0.23 | 3.08 ± 0.45 |
| SCSLVLEHQPDNIKALFRKGKVLA [FKBP8] | 2.76 ± 0.15 | 2.68 ± 0.26 |
| SCTIIFLASIFQLAMWTTALLHQA [TMEM175] | 2.5 ± 0.2 | 3.17 ± 0.54 |
| SDARVVKDMATGKSKGYGFVSFFN [TIA1] | 2.79 ± 0.35 | 2.77 ± 0.16 |
| SDRRKEKDPKAGDSKSGGSGSESD [DVL3] | 5.69 ± 0.32 | 5.55 ± 0.15 |
| SDTYRCEERSPSFGEDYYGPSRSR [CLK3] | 4.47 ± 0.12 | 4.52 ± 0.2 |
| SEDQKRLKQAKELDRERAAANEQL [CHCHD3] | 5.48 ± 0.17 | 5.57 ± 0.21 |

| Sequence | protein stability index (treatment: DMSO) | protein stability index (treatment: MLN4924 1 uM, 8 h) |
| --- | --- | --- |
| SEHVLKKAHKYSELIILYEKKGLH [VPS39] | 2.08 ± 0.23 | 2.27 ± 0.34 |
| SERDSEAAKQNHVTADDFVQTSVI [EHMT1] | 5.34 ± 0.45 | 5.35 ± 0.34 |
| SETHAAGHSQEKTHSREKSSQESG [CHGB] | 5.67 ± 0.22 | 5.57 ± 0.16 |
| SFARDLPDFPSINMDPAGLDDEDD [RETREG3] | 5.41 ± 0.32 | 5.49 ± 0.098 |
| SFEHRVRGVRRTASTPTPDDKLFQ [CPN1] | 4.3 ± 0.31 | 4.37 ± 0.3 |
| SFLKQKEQLEAEAQALRQELERQR [PBXIP1] | 4.43 ± 0.39 | 4.52 ± 0.088 |
| SFSVLNWDQVSRLHEVLTEVVPIH [TENT5C] | 2.26 ± 0.28 | 2.3 ± 0.27 |
| SGGGSTSAAGIEARSRALRRRWCP [SPACA3] | 3.95 ± 0.12 | 4 ± 0.13 |
| SGGSYRDSYESYGNSRSAPPTRGP [RBMX] | 4.3 ± 0.27 | 3.83 ± 0.38 |
| SGLIEIQSYPLCIYLINQKWFGRK [SLC22A15] | 2.47 ± 0.59 | 2.19 ± 0.2 |
| SGSDVLDNVAYARAFNTDHQTQLL [RAD51] | 3.66 ± 0.21 | 3.73 ± 0.12 |
| SGSRPRKPPPRKHTRSWAVLKLLL [LRRC59] | 2.39 ± 0.37 | 2.31 ± 0.28 |
| SIAPPEAEGVVLSDSPDAADSTSF [PPTC7] | 5.34 ± 0.61 | 5.29 ± 0.76 |
| SIRILDELVLPFQELQIDDNEYAY [HNF4A] | 3.46 ± 0.26 | 3.44 ± 0.26 |
| SISDLSEHVFDLILELYNIDSHLL [PDS5B] | 2.49 ± 0.89 | 2.25 ± 0.81 |
| SITHYRPVSASRSSLDLSYYPTSS [EMD] | 3 ± 0.26 | 3.23 ± 0.19 |
| SKATFSRNIMNLIDIVAIIPYFIT [KCNA3] | 3.16 ± 0.52 | 3.32 ± 0.76 |
| SKPKTFQAYLDDCHRRYSCAHCRA [YPEL3] | 2.41 ± 0.55 | 3.04 ± 0.59 |
| SKQSPPMASSPIQPRKGGADWLGL [FBF1] | 3.23 ± 0.47 | 3.48 ± 0.42 |
| SLGERMNTFVRYLLKRIKKCCGMR [KCNK9] | 3.38 ± 0.14 | 2.83 ± 0.32 |
| SLIQLLGRNFILFIIFGTMEEMQN [HACD3] | 2.92 ± 0.67 | 3.01 ± 1.3 |
| SLLDVQRVPSFESFEDDCSQSLCL [ETS2] | 3.9 ± 0.53 | 3.67 ± 0.54 |
| SLLGDDVFSTMAGLEEADAEVSVI [FBF1] | 3.56 ± 0.26 | 3.5 ± 0.22 |

| Sequence | protein stability index (treatment: DMSO) | protein stability index (treatment: MLN4924 1 uM, 8 h) |
| --- | --- | --- |
| SLLRGFLLQNEFVGFMWRQRGRVI [MCOLN1] | 2.29 ± 0.2 | 2.13 ± 0.2 |
| SLPSPSSSGHQNRRFSSEDLEDPL [FBF1] | 5.45 ± 0.3 | 5.46 ± 0.29 |
| SLVWGMVCGQNWGIVEAMVVCRQL [LOXL2] | 2.46 ± 0.82 | 3.07 ± 0.36 |
| SMFTLPVVYVKHQAQIDQYLGLVR [RTN1] | 2.5 ± 0.49 | 2.23 ± 0.41 |
| SMVVPLLSLHVKSLGASPTVAGIV [MFSD9] | 2.95 ± 0.36 | 2.4 ± 0.46 |
| SNKKRPSLDGRDPGNGTHGLSPEE [ELOA2] | 5.36 ± 0.27 | 5.33 ± 0.23 |
| SPLGALQHGFFRRTADEATNTGPA [DYRK1B] | 4.38 ± 0.16 | 4.57 ± 0.053 |
| SQSPSVSQLSVLSLSGVMLTDVSP [PRAME] | 3 ± 0.49 | 3 ± 0.33 |
| SQVCRVAYEIMQTLHPDASANFHS [FUT8] | 2.34 ± 0.36 | 2.27 ± 0.42 |
| SRVTAFLDDLSQKLKPLGEAEREF [NLN] | 2.84 ± 0.07 | 3.12 ± 0.51 |
| SRYLGDSGLDDFFLDIDTSAVEKE [SERTAD3] | 5.31 ± 0.12 | 4.9 ± 0.55 |
| SSAGSAEQTAPGDSTGYMEVSLDS [EHMT1] | 5.29 ± 0.35 | 5.33 ± 0.12 |
| SSAPRDVQARMLSSTTILVQWKEP [PTPRD] | 2.83 ± 0.47 | 2.79 ± 0.15 |
| SSCSSTSGGGGGGGGGGGGGKSGG [CCDC6] | 5.17 ± 0.065 | 5 ± 0.51 |
| SSFQDLLGDALAGPPRAPGRSGWP [HES6] | 3.13 ± 0.12 | 3.11 ± 0.18 |
| SSIECYDPIIDSWEVVTSMGTQRC [KLHL12] | 2.95 ± 0.2 | 3.24 ± 0.49 |
| SSKLVTKKAPQPAKPRLAERMTTR [HDAC6] | 4.32 ± 0.14 | 4.47 ± 0.38 |
| SSLCYKQRIKSQERETEATRGRGG [MOG] | 5 ± 0.27 | 5.06 ± 0.32 |
| SSSSECLEDSTMGSVADTVARVLR [PLK2] | 4.08 ± 0.22 | 4.03 ± 0.34 |
| SSYPVCVSKVVKGGSSGKGTTLRG [OAS1] | 4.11 ± 0.39 | 4.18 ± 0.19 |
| STIVVMLTKLREMGREKCHQYWPA [PTPRD] | 2.55 ± 0.22 | 2.63 ± 0.44 |
